Among the data in patent publication US20230288413A1 are limit of detection values, retold here.

Test [1] has as its target anti-S1 fragment of SARS-CoV-2's spike protein antibody. Nature of the test: lateral flow dipstick; capture antibody trapped in 5% acrylamide hydrogel; S1-coated gold nanoparticles as reporter (FIG. 3, panel b).
The target is the same in test [2]. Nature of the test: lateral flow dipstick; capture antibody immobilized by physical adsorption; S1-coated gold nanoparticles as reporter (FIG. 3, panel a).
For test [3] the target is unchanged. Nature of the test: lateral flow dipstick; separate experiment with improved hydrogel and streptavidin; S1-coated gold nanoparticles as reporter (FIG. 3, panel d).
The target is the same in test [4]. Briefly: lateral flow dipstick; capture antibody held by streptavidin trapped in the hydrogel; S1-coated gold nanoparticles as reporter (FIG. 3, panel c).

As for “biotin-SP-conjugated anti-human IgG Fc (antibody)”, the limit of detection turned out to be 1 ng in test [1], 10 ng in test [2], 0.05 ng in test [3] and 0.1 ng in test [4].
